Results as given in patent US20150132779A1 (TOKYO METROPOLITAN INSTITUTE OF MEDICAL SCIENCE, published 2015).

Target: T1, ubiquitin monomer (S. cerevisiae (yeast lysate), UniProt P0CG63 1-76)
T1 construct: mature; Endogenous monomer of the yeast lysate, seen by western blot in the pull-down experiment; also called monoubiquitin (free, in yeast lysate)
Experiment: pull-down from yeast lysate with biotinylated TR-TUBE and streptavidin beads, anti-ubiquitin western blot
Procedure: For Ub-ProT assay of yeast extracts, 30 OD₆₀₀ units of log-phase cells were harvested and lysed with glass beads in 300 μl of lysis buffer (50 mM Tris-HCl [pH 7.5], 100 mM NaCl, 10% glycerol, 10 μM MG132, 10 mM iodoacetamide, and 1× complete protease inhibitor cocktail [Roche, EDTA-free]). After centrifugation, the supernatant (100 μg) was incubated with TR-TUBE (10 μg) for 1 h at 4° C. Next, TR-TUBE-bound polyubiquitylated proteins were incubated with Dynabeads MyOne Streptavidin C1 (1 mg, Life Technologies) for 45 min at 4° C. The beads were washed three times with PBS-T, and then incubated in 100 μl of 50 mM AMBC, 0.01% Rapigest SF, and trypsin (1.5 μg) overnight at 37° C. […] After the beads were washed with PBS-T, the polyubiquitin chains were selectively eluted by 30-min incubation with 1× NuPAGE LDS sample buffer. The samples were directly subjected to electrophoresis on NuPAGE gels in order to avoid aggregation of polyubiquitin chains.
The inventors of the present invention next investigated the mean lengths of substrate-attached polyubiquitin chains in yeast lysate. To the knowledge of the inventors of the present invention, the actual chain lengths of polyubiquitylated proteins in vivo have not been previously determined. In this experiment, the inventors of the present invention used a drug-sensitive pdr5 mutant to determine the effect of a proteasome inhibitor, MG132. […]

T1 sequence (P0CG63 1-76 limits assumed): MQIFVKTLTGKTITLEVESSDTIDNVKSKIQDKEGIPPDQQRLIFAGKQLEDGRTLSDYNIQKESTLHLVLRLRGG

B1: trypsin-resistant tandem ubiquitin binding entity (TR-TUBE) (designed binder)
chain: MRGCHHHHHHGMASMTGGQQMGDIGGGGSGGGVNPQLQNPEVAFQQQLEQLSAMGFLNAEANLQALIATGGDINAAIEALLGSQPSGGGGSGGGVNPQLQNPEVAFQQQLEQLSAMGFLNAEANLQALIATGGDINAAIEALLGSQPSGGGGSGGGVNPQLQNPEVAFQQQLEQLSAMGFLNAEANLQALIATGGDINAAIEALLGSQPSGGGGSGGGVNPQLQNPEVAFQQQLEQLSAMGFLNAEANLQALIATGGDINAAIEALLGSQPSGGGGSGGGVNPQLQNPEVAFQQQLEQLSAMGFLNAEANLQALIATGGDINAAIEALLGSQPSGGGGSGGGVNPQLQNPEVAFQQQLEQLSAMGFLNAEANLQALIATGGDINAAIEALLGSQPSGGGGS
modifications: Cys residue upstream of the hexahistidine tag biotinylated with EZ-link Maleimide-PEG2-Biotin
notes: also called 6x TR-TUBE; biotinylated TR-TUBE
binding result: no binding
